In US9803013B2, “Biological materials and uses thereof” (BioInvent International AB, priority 2005, dated 2017):

B1: BI-505 IgG1 N297Q: BI-505 variant with abolished FcγR-binding (antibody, V domains shown)
VH: EVQLLESGGGLVQPGGSLRLSCAASGFTFSNAWMSWVRQAPGKGLEWVAFIWYDGSNKYYADSVKGRFTISRDNSKNTLYLQMNSLRAEDTAVYYCARYSGWYFDYWGQGTLVTVSS
VL: QSVLTQPPSASGTPGQRVTISCTGSSSNIGAGYDVHWYQQLPGTAPKLLIYDNNNRPSGVPDRFSGSKSGTSASLAISGLRSEDEADYYCQSYDSSLSAWLFGGGTKLTVLG
B2: BI-505 IgG4: BI-505 variant with reduced FcγR-binding compared to wildtype BI-505 IgG1 (antibody, V domains shown)
VH: EVQLLESGGGLVQPGGSLRLSCAASGFTFSNAWMSWVRQAPGKGLEWVAFIWYDGSNKYYADSVKGRFTISRDNSKNTLYLQMNSLRAEDTAVYYCARYSGWYFDYWGQGTLVTVSS
VL: QSVLTQPPSASGTPGQRVTISCTGSSSNIGAGYDVHWYQQLPGTAPKLLIYDNNNRPSGVPDRFSGSKSGTSASLAISGLRSEDEADYYCQSYDSSLSAWLFGGGTKLTVLG

Experiments:
[1] = tested on: primary patient MM cells; assay: SCID-hu mouse model of multiple myeloma; assay type: in vivo
Description: Bone marrow cells (>20% plasma cells) from myeloma patients (two patients in experiment 1 [top panel] and two different patients in experiment 2 [lower panel]) were injected into transplanted human fetal bones of SCID-hu mice. Four weeks after myeloma cell inoculation mice were divided into four groups to yield similar mean hIgG levels between groups, each group comprising mice grafted with MM cells from the different patient donors used in the experiment, and twice weekly treatment with 2 mg/kg BI-505, 1 mg/kg bortezomib or 2 mg/kg control human IgG was started (arrow). […] Graphs show mean hIgG concentrations.
Primary human MM cells depend on interactions with bone marrow stromal cells to proliferate and survive. The SCID-hu mouse harbors a human microenvironment where primary patient MM cells proliferate and induce pathology similar to human clinical MM (Yaccoby et al., 1998). MM cell derived human IgG titers were detected (>10 μg/ml) in the serum of SCID-hu mice four weeks after implantation of human MM cells to transplanted human bones, at which time treatment with antibodies (2 mg/kg) or bortezomib (1 mg/kg) began. Human IgG titers increased steadily in control treated SCID-hu mice over the course of experimentation to reach maximal concentrations of 40±5 μg/ml just before sacrifice (FIG. 18B and FIG. 19). […] Two independent experiments were performed with similar results (FIG. 18B and FIG. 19), each with MM cells from two different patient donors (n=4).
Human fetal femurs and tibias, obtained at 17 to 22 gestational weeks, were cut into fragments and implanted subcutaneously in SCID mice (SCID-hu) at age 6 to 8 weeks. Each animal was implanted with one bone fragment. Four weeks after bone implantation, 2 to 14×10^6 bone marrow cells from each patient (two patients per experiment for a total of four patients in two independent experiments, n=4), containing>20% plasma cells were injected directly into the human bone of 6 to 8 SCID-hu mice in a final volume of 30 to 40 μl of phosphate-buffered saline (PBS). One group of mice was implanted with bone only and served as “healthy” bone control. Mouse sera were serially monitored for human immunoglobulin (hIg) and the isotype levels were used as an indicator of myeloma cell growth by elisa. When hIg level reached 10 μg/mL or higher in 2 consecutive measurements after 4 weeks of injection of the tumor cells, the mice were divided into four groups to yield similar mean hIgG levels between groups, each group comprising mice grafted with MM cells from the different patient donors used in each experiment. The four treatment groups were: healthy control group (no myeloma cells injected and no drug treatment), isotype control group (myeloma cells injected and treated with isotype control IgG, 2 mg/kg, i.p., twice weekly), BI505 group (myeloma cells injected and treated with BI505, 2 mg/kg, i.p., twice weekly) and bortezomib group (myeloma cells injected and treated with 1 mg/kg, i.p., twice weekly). In some graphs hIgG levels were normalized to pretreatment (4 weeks) levels and the percent increase or decrease in hIgG levels as a function of treatment and time was analyzed. Normalized data from animals receiving the same treatment (control IgG, BI-505 or bortezomib) but grafted with MM cells from each of the four different patient donors in the two experiments were pooled and statistical difference was assessed by grouped 2-way ANOVA test and Bonferroni's posttest using GraphPad Prism 5 software. Patient myeloma cells were taken after informed consent and with the approval of the local ethics committee. For x-radiography evaluation and quantification of bone mineral density (BMD) mice in the four groups were sacrificed and the implanted human bones were taken out and fixed in 10% formalin solution. Radiographs were taken with an AXR Minishot-100 beryllium source instrument (Associated X-Ray Imaging Corp., Haverhill, Mass., USA) and 100 s exposure at 30 kV. […]

[2] = tested on: endothelial cells (HUVEC, HMVEC); assay: HUVEC and HMVEC apoptosis assay; assay type: cell-based; conditions: resting or IFN-γ activated HUVEC/HMVEC, antibody cross-linked or not
Description: (FIG. 23G) Antibody-induced endothelial cell apoptosis. HUVEC or HMVEC endothelial cells were incubated with paclitaxel (positive control), BI-505 or isotype control IgG in the presence or absence of cross-linking mAb. Apoptosis was measured by flow-cytometry following staining of cells with Annexin V-AF488.
Based on BI-505's documented ability to confer Fc:FcγR-dependent antitumor activity in malignant B cells, and a proposed general negative role for complement activation with regard to antibody tolerability (Lim et al.; van der Kolk et al., 2001), direct cytotoxic effects (PCD, ADCC, and CDC) of BI-505 in ICAM-1-expressing human peripheral blood B cells and endothelial cells were examined.
HUVEC (Cascade Biologics, pool of donors) and HMVEC (Cascade Biologics) were plated in 6-well plates (80 000-120 000 cells/well) in the presence or absence of 200 U/mL IFNγ, in order to induce ICAM-1 expression. Media was changed the day before apoptosis-induction experiments were performed and titrated concentrations of BI-505, enlimomab or isotype control antibody were added to the cells, in the presence or absence of cross-linking Fab (ab′)2 (same as the B-cell protocol). […] Necrotic cells were identified by increased fluorescence in the FL-4 channel and apoptotic cells by increased signal in the FL-1 channel on a flow cytometer (FACSCalibur, BD Bioscience).

[3] = molecular target: T1, mouse FcγRIV (Mus musculus, UniProt A0A0B4J1G0); assay: BiaCore analysis of BI-505 Fc-variant binding to FcγR
T1 construct: made in house; host or cells: HEK293E cells (transient)
T1 sequence (A0A0B4J1G0 21-249): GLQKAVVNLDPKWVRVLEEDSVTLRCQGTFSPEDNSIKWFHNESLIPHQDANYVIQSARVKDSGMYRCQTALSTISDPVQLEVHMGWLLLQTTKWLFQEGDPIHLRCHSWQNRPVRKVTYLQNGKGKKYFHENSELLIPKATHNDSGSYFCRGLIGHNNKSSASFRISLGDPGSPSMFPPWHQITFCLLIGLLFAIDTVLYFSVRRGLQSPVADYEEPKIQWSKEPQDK
Description: (FIG. 20B) BiaCore analysis of BI-505 Fc-variant antibodies binding to mouse FcγRIV.
(§1) His-tagged human FcγRIIIa and mouse FcγRIV were transiently expressed in HEK293E cells, purified using Ni-NTA chromatography, and characterized by SDS-PAGE and/or Biacore. Surface plasmon resonance (SPR) measurements were performed using a Biacore 3000 instrument. Goat F(ab)′2 α-human-F(ab)′2 fragments (Jackson Laboratories) were immobilized with a CM-5 chip using a standard amine coupling protocol. BI-505 (IgG1) and IgG4 or IgG1 297Q variants of BI-505 were diluted to 15 and 60 μg/mL respectively and added to the surface at 10 μL/min for 3 min. His-tagged human FcγRIIIa or mouse FcγRIV was pre-incubated with an α-HIS antibody (R&D Systems) at a 2:1 molar ratio before addition to the chip surface, 30 μL/min, for 1 min. After each cycle the surface was regenerated twice with glycine buffer pH 1.7.

[4] = molecular target: T2, human FcγRIIIa (Homo sapiens, UniProt P08637); assay: as above
T2 construct: made in house; host or cells: HEK293E cells (transient)
T2 sequence (P08637 17-254): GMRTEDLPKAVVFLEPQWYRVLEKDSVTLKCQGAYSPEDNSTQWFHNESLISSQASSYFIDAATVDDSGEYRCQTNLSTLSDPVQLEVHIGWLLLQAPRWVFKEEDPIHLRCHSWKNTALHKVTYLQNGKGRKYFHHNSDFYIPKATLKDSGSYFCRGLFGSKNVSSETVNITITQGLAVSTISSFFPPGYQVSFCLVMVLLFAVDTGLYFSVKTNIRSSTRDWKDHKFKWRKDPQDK
Description: (FIG. 20C) BiaCore analysis of BI-505 Fc-variant antibodies binding to human FcγRIIIa.
as §1

[5] = tested on: RPMI-8226 cells; assay: Macrophage ADCP; assay type: cell-based; conditions: RPMI-8226, human macrophages
Description: (§2) Cultured macrophages were detached and plated in flat 96-well plates at 50 000 cells/well and placed in 37° C. CFSE-stained target cells were incubated with antibodies for up to 1 hr on ice. After washing, the different cell solutions were added to the culture plates containing macrophages at a ratio of 5:1 (Target cells:Macrophages). Thereafter, the culture plates were incubated at 37° C. for 1-2 hr (primary patient MM cells) or 16 hr (RPMI-8226 cells). The percentage of macrophages that had phagocytosed tumor cells (CFSE^+, CD206^+) per total analyzed macrophages was determined following gating and acquisition of 5000 CD206^+ cells/sample.
(§3) Buffy coats from healthy human donors were ordered through the local blood central at Lund University Hospital and Halmstad Hospital. Peripheral blood mononuclear cells (PBMCs) were first extracted using Ficoll-Paque PLUS (GE Healthcare Life Sciences), followed by isolation of monocytes with CD14 MicroBeads and MACS separation (Miltenyi Biotec). The monocytes were cultured in RPMI 1640 medium with 10% heat-inactivated FBS (Invitrogen) and 25 ng/mL of recombinant human M-CSF (R&D Systems) for 6-14 days, causing differentiation into macrophages. Medium with M-CSF was changed every 2-3 days upon initiation of cultures.
(§4) RPMI-8226 cells (ATCC) were continuously cultured in RPMI 1640 medium supplemented with 10 mM HEPES, 1 mM sodium pyruvate and 10% FBS. For multiple myeloma cells, freshly isolated bone marrow samples were donated by patients at Lund University Hospital and subsequently processed with Ficoll-Paque PLUS. Negative isolation of malignant plasma cells was then performed using the Plasma Cell Isolation Kit II according to the manufacturer's instructions (Miltenyi Biotec).
(§5) At least 4 h before co-culture with target cells the cultured macrophages were detached with Accutase (Sigma Aldrich), before plated in flat 96-well plates at 50 000 cells/well and placed in 37° C. […] After washing, the different cell solutions were added to the culture plates containing macrophages at a ratio of 5:1 (Target cells:Macrophages). Thereafter, the culture plates were incubated at 37° C. for 1-2 hr (primary patient MM cells) or 16 hr (RPMI-8226 cells). Next, samples were stained with APC-conjugated anti-CD206 antibody (BD Biosciences), before harvested by scraping the culture plate wells. The resulting cell solutions were then analyzed by flow cytometry, where CD206^+ macrophages were gated and acquired at 5000 cells/sample. A cut-off level identifying CFSE^+, CD206^+ double positive (phagocytic) macrophages was set for each experimental sample series. This level differed between the individual assays since the magnitude of basic (unstimulated) phagocytosis varied (different donors and time-points) among the experiments.

[6] = tested on: primary patient's MM cells; assay: Macrophage ADCP; assay type: cell-based; conditions: human macrophages
Description: as §2, §3, §4, §5

[7] = mouse, 2 mg/kg
Description: Blood samples collected from the vena cava were centrifuged at 2500 g for 15 min to obtain serum and the samples were stored at −20° C.
Sera were prepared from blood samples collected from the vena saphena from 3 animals in each group at different time-points during the course of in vivo experimentation. Briefly, ELISA plates were coated over night with human ICAM-1 protein. The following day, plates were incubated with the serum samples. Biotinylated goat-anti-BI-505 was used for detection of BI-505 in the serum samples. Sera were analysed by ELISA to determine BI-505 trough levels. Trough BI-505 serum concentrations were then plotted as a function of dose and were fitted using five parameter log-log curve and XLfit software (IDBS, Guildford, United Kingdom).

[8] = tested on: ARH-77 tumors; assay: SCID/ARH-77 subcutaneous xenograft model; conditions: established ARH-77 tumors
Description: For subcutaneous grafting, 1-5×10^6 tumor cells (RPMI-8226, NCI-H929, EJM, OPM-2, ARH-77, or Daudi) were subcutaneously injected at a volume of 100 μl into the left flank of anesthetized mice as described in the Supplemental Information. […] Treatment with saline, isotype control IgG, bortezomib, lenalidomide, dexamethasone, or BI-505 started on day 5 (RPMI-8226). Treatment with melphalan started on day 10. BI-505 or isotype IgG mAb was administered i.v. at 2 mg/kg/inj twice weekly for 8 weeks; bortezomib at 1 mg/kg/inj once weekly for 8 weeks; lenalidomide orally at 2 mg/kg/inj for 2 cycles consisting of 5 days of treatment and 2 days of wash out; melphalan i.v. at 3 mg/kg/inj once weekly for 8 weeks; and dexamethasone at 6 mg/kg/inj three times weekly for 2 weeks.
Mice were anaesthetized with a mixture of sevofluran and oxygen prior to myeloma cell inoculation and 1-10×10^6 myeloma cells were then subcutaneously injected in a volume of 100 μl into the left flank. Treatment with antibodies by intraperitoneal injection started either 1 day after cell inoculation (prophylactic model) or when tumors reached approximately 100 mm^3 (established model). Antibodies were administered in 200 μL of PBS. Treatment with PBS only or isotype IgG were used as controls. Macrophages or NK-cells were depleted by i.p. administration of 0.1 ml clodronate liposomes (Clophosome-A, FormuMax, Scientific Inc. Palo Alto, USA) or 20 μl anti-asialo GM1 pCI Ab (CL8955, Cedarlane Laboratories Limited, Canada) respectively, starting one day prior to antibody treatment, followed by administration twice weekly for a total of three weeks, PBS was used as control.
Tumor size was measured using a digital calliper and tumor volumes were calculated according to the formula width^2×length×0.52, as previously described (Cao et al., 1999).
Statistical analyses of tumor growth inhibition relative to control antibody treatment were carried out using Kruskal-Wallis nonparametric ANOVA with Dunn's multiple comparisons test or Mann-Whitney non-parametric analysis, as indicated in the figure legends.

Molecule	binding to mouse FcγRIV, order [3]	In vivo serum concentrations [7]	in vivo antitumor activity of Fc-variants, order [8]	also measured
CC(C)C[C@H](NC(=O)[C@H](Cc1ccccc1)NC(=O)c1cnccn1)B(O)O [bortezomib, reference compound]	–	–	–	bone osteoclasts ([1]; TRAP staining, compared to control-treated mice): reduced numbers of bone osteoclasts; serum human IgG levels ([1]; antibody 2 mg/kg or bortezomib 1 mg/kg twice weekly): halted or reduced serum human IgG levels to below pre-treatment levels
CC(=O)O[C@H]1C(=O)[C@@]2(C)[C@H]([C@H](OC(=O)c3ccccc3)[C@]3(O)C[C@H](OC(=O)[C@H](O)[C@@H](NC(=O)c4ccccc4)c4ccccc4)C(C)=C1C3(C)C)[C@]1(OC(C)=O)CO[C@@H]1C[C@@H]2O [paclitaxel, reference compound]	–	–	–	cell death in normal cells [2]: induced significant PCD
B1	IgG1 N297Q<IgG4<IgG1	9.6 ± 3 µg/mL	IgG1 N297Q<IgG4<IgG1	binding to human FcγR [4]: did not bind to human FcγR; ADCP [5]: did not confer ADCP; ADCP [6]: did not confer ADCP
B2	IgG1 N297Q<IgG4<IgG1	13 ± 3.1 µg/mL	IgG1 N297Q<IgG4<IgG1	–
